The source of these data is the supplement of paper PMC10567573.

B1: KCNK9 (parent)
chain: DVPDLQSVCSCTCYRSQDYGGRSV
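Note: lentivirally expressed fusions sorted by FACS into six bins by GFP to DsRed ratio, PSI derived from sequencing read proportions per bin multiplied by bin number.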

The variants in this data set derive from B1. The data set is described as follows: protein stability index of a GFP-peptide fusion (GPS, HEK-293T) (PSI 1-6); higher = more stable. To be noted: c terminus: a fixed tail appended.
As to DVPDLQSVCSCTCYRVQDYGGRSV [S16V], the protein stability index came to 1.03.
Take DVPDLQSVCSCTCYRLQDYGGRSV [S16L]: the protein stability index was 2.87.
With DVPDLQSVCSCTCYRYQDYGGRSV [S16Y], the protein stability index was 2.31.
In the case of DVPDLQSVCSCTCYRRQDYGGRSV [S16R], the protein stability index amounted to 1.65.
Consider DVPDLQSVCSCTCYRPQDYGGRSV [S16P], for which the protein stability index stood at 3.56.
On to DVPDLQSVCSCTCYRKQDYGGRSV [S16K], for which the protein stability index stood at 2.08.
DVPDLQSVCSCTCYRDQDYGGRSV [S16D]: the protein stability index was 1.85.
For DVPDLQSVCSCTCYRCQDYGGRSV [S16C], the protein stability index stood at 2.5.
For the variant DVPDLQSVCSCTCYRTQDYGGRSV [S16T], the protein stability index worked out at 2.18.
The result for DVPDLQSVCSCTCYRNQDYGGRSV [S16N] reads 2.1; that for DVPDLQSVCSCTCYRAQDYGGRSV [S16A], 1.2; that for DVPDLQSVCSCTCYRMQDYGGRSV [S16M], 2.21.
The result for DVPDLQSVCSCTCYREQDYGGRSV [S16E] reads 1.79.
As to DVPDLQSVCSCTCYRIQDYGGRSV [S16I], the protein stability index turned out to be 2.85.
Turning to DVPDLQSVCSCTCYRFQDYGGRSV [S16F], the protein stability index came out at 2.78.
Consider DVPDLQSVCSCTCYRGQDYGGRSV [S16G], for which the protein stability index was determined as 1.07.
The result for DVPDLQSVCSCTCYRHQDYGGRSV [S16H] reads 1.8; that for DVPDLQSVCSCTCMRSQDYGGRSV [Y14M], 3.61.
As for DVPDLQSVCSCTCSRSQDYGGRSV [Y14S], the protein stability index stood at 2.29.
On to DVPDLQSVCSCTCRRSQDYGGRSV [Y14R], for which the protein stability index came out at 2.37.
For DVPDLQSVCSCTCGRSQDYGGRSV [Y14G], the protein stability index worked out at 2.42.
The result for DVPDLQSVCSCTCHRSQDYGGRSV [Y14H] reads 2.55.
With DVPDLQSVCSCTCFRSQDYGGRSV [Y14F], the protein stability index came to 2.1.
With DVPDLQSVCSCTCLRSQDYGGRSV [Y14L], the protein stability index was 1.47.
Consider DVPDLQSVCSCTCTRSQDYGGRSV [Y14T], for which the protein stability index is 1.5.
On to DVPDLQSVCSCTCQRSQDYGGRSV [Y14Q], for which the protein stability index came to 1.53.
As for DVPDLQSVCSCTCCRSQDYGGRSV [Y14C], the protein stability index worked out at 1.75.
The result for DVPDLQSVCSCTCKRSQDYGGRSV [Y14K] reads 2.27; that for DVPDLQSVCSCTCVRSQDYGGRSV [Y14V], 2.38; that for DVPDLQSVCSCTCARSQDYGGRSV [Y14A], 1.91.
Consider DVPDLQSVCSCTCNRSQDYGGRSV [Y14N], for which the protein stability index was 2.23.
As to DVPDLQSVCSCTCDRSQDYGGRSV [Y14D], the protein stability index was 1.92.
As for DVPDLQSVCSCTCWRSQDYGGRSV [Y14W], the protein stability index was determined as 3.24.
The result for DVPDLQSVCSCTCPRSQDYGGRSV [Y14P] reads 2.71; that for DVPDLQSVCSCTCIRSQDYGGRSV [Y14I], 1.83; that for DVPDLQSVCSCTCYCSQDYGGRSV [R15C], 2.17.
For the variant DVPDLQSVCSCTCYASQDYGGRSV [R15A], the protein stability index was determined as 2.07.
Take DVPDLQSVCSCTCYWSQDYGGRSV [R15W]: the protein stability index worked out at 2.21.
For DVPDLQSVCSCTCYLSQDYGGRSV [R15L], the protein stability index worked out at 1.49.
In the case of DVPDLQSVCSCTCYGSQDYGGRSV [R15G], the protein stability index turned out to be 2.23.
DVPDLQSVCSCTCYESQDYGGRSV [R15E]: the protein stability index turned out to be 2.52.
The result for DVPDLQSVCSCTCYVSQDYGGRSV [R15V] reads 1.28; that for DVPDLQSVCSCTCYTSQDYGGRSV [R15T], 2.2.
With DVPDLQSVCSCTCYKSQDYGGRSV [R15K], the protein stability index stood at 2.08.
The result for DVPDLQSVCSCTCYDSQDYGGRSV [R15D] reads 3.58.
Take DVPDLQSVCSCTCYFSQDYGGRSV [R15F]: the protein stability index was found to be 1.78.
On to DVPDLQSVCSCTCYHSQDYGGRSV [R15H], for which the protein stability index turned out to be 2.68.
Consider DVPDLQSVCSCTCYSSQDYGGRSV [R15S], for which the protein stability index turned out to be 2.48.
Turning to DVPDLQSVCSCTCYQSQDYGGRSV [R15Q], the protein stability index worked out at 1.68.
As for DVPDLQSVCSCTCYYSQDYGGRSV [R15Y], the protein stability index came to 1.98.
Regarding DVPDLQSVCSCTCYPSQDYGGRSV [R15P], the protein stability index was determined as 2.05.
The result for DVPDLQSVCSCTWYRSQDYGGRSV [C13W] reads 1.75; that for DVPDLQSVCSCTIYRSQDYGGRSV [C13I], 2.85.
The result for DVPDLQSVCSCTQYRSQDYGGRSV [C13Q] reads 2.69; that for DVPDLQSVCSCTMYRSQDYGGRSV [C13M], 1.73.
As for DVPDLQSVCSCTSYRSQDYGGRSV [C13S], the protein stability index was found to be 2.79.
Consider DVPDLQSVCSCTDYRSQDYGGRSV [C13D], for which the protein stability index is 2.12.
Take DVPDLQSVCSCTTYRSQDYGGRSV [C13T]: the protein stability index is 3.
For the variant DVPDLQSVCSCTFYRSQDYGGRSV [C13F], the protein stability index was 1.14.
For the variant DVPDLQSVCSCTRYRSQDYGGRSV [C13R], the protein stability index was 2.19.
Take DVPDLQSVCSCTLYRSQDYGGRSV [C13L]: the protein stability index came out at 1.97.
As to DVPDLQSVCSCTKYRSQDYGGRSV [C13K], the protein stability index was 1.82.
The result for DVPDLQSVCSCTPYRSQDYGGRSV [C13P] reads 2.81; that for DVPDLQSVCSCTNYRSQDYGGRSV [C13N], 2.53; that for DVPDLQSVCSCTGYRSQDYGGRSV [C13G], 3.14.
In the case of DVPDLQSVCSCTYYRSQDYGGRSV [C13Y], the protein stability index is 1.94.
Consider DVPDLQSVCSCTEYRSQDYGGRSV [C13E], for which the protein stability index came to 2.85.
For DVPDLQSVCSCTVYRSQDYGGRSV [C13V], the protein stability index worked out at 2.31.
In the case of DVPDLQSVCSCTAYRSQDYGGRSV [C13A], the protein stability index was 2.28.
The result for DVPDLQSVCSCPCYRSQDYGGRSV [T12P] reads 2.05.
Turning to DVPDLQSVCSCICYRSQDYGGRSV [T12I], the protein stability index came to 1.57.
For DVPDLQSVCSCQCYRSQDYGGRSV [T12Q], the protein stability index came out at 1.65.
Turning to DVPDLQSVCSCVCYRSQDYGGRSV [T12V], the protein stability index is 2.47.
With DVPDLQSVCSCMCYRSQDYGGRSV [T12M], the protein stability index came to 1.25.
Regarding DVPDLQSVCSCYCYRSQDYGGRSV [T12Y], the protein stability index stood at 1.94.
In the case of DVPDLQSVCSCNCYRSQDYGGRSV [T12N], the protein stability index was 1.62.
The result for DVPDLQSVCSCLCYRSQDYGGRSV [T12L] reads 1.3; that for DVPDLQSVCSCHCYRSQDYGGRSV [T12H], 3.13.
On to DVPDLQSVCSCSCYRSQDYGGRSV [T12S], for which the protein stability index was found to be 1.31.
Consider DVPDLQSVCSCKCYRSQDYGGRSV [T12K], for which the protein stability index turned out to be 1.58.
The result for DVPDLQSVCSCWCYRSQDYGGRSV [T12W] reads 2.72; that for DVPDLQSVCSCTCYRSIDYGGRSV [Q17I], 1.87.
The result for DVPDLQSVCSCTCYRSFDYGGRSV [Q17F] reads 1.95.
As to DVPDLQSVCSCTCYRSPDYGGRSV [Q17P], the protein stability index was found to be 1.27.
The result for DVPDLQSVCSCTCYRSGDYGGRSV [Q17G] reads 2.21; that for DVPDLQSVCSCTCYRSLDYGGRSV [Q17L], 3.13; that for DVPDLQSVCSCTCYRSEDYGGRSV [Q17E], 2.07.
Take DVPDLQSVCSCTCYRSHDYGGRSV [Q17H]: the protein stability index is 2.14.
For the variant DVPDLQSVCSCTCYRSKDYGGRSV [Q17K], the protein stability index was 1.86.
The result for DVPDLQSVCSCTCYRSADYGGRSV [Q17A] reads 1.56; that for DVPDLQSVCSCTCYRSNDYGGRSV [Q17N], 1.51; that for DVPDLQSVCSCTCYRSCDYGGRSV [Q17C], 2.31.
For DVPDLQSVCSCTCYRSDDYGGRSV [Q17D], the protein stability index was 2.15.
The result for DVPDLQSVCSCTCYRSMDYGGRSV [Q17M] reads 2.76.
